Laboratory results taken from the supplement of paper PMC5998384.

Columns and labels:
[1] = system: HeLa Kyoto; assay: melting temperature (median over replicates), in situ; higher = more thermally stable
[2] = system: HeLa Kyoto; assay: thermal stability score vs G1/S (z-score of summed log2 fold changes over temperatures); higher = more thermally stable than in G1/S
[3] = system: HeLa Kyoto; assay: solubility in G1/S (NP-40 vs SDS abundance) (log2 ratio); higher = more soluble; conditions: cell cycle stage: G1/S
[4] = system: HeLa Kyoto; assay: solubility change mitosis vs G1/S (difference of NP-40 vs SDS log2 ratios) (log2 ratio difference); higher = more soluble in mitosis
[5] = cell cycle stage: early G1 (4.5 h after nocodazole release)
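Throughout, for melting temperature (median over replicates), in situ: HeLa Kyoto cells synchronized by double thymidine or nocodazole block, proteins quantified by TMT10plex mass spectrometry, three independent biological replicates.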
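Throughout, for solubility change mitosis vs G1/S (difference of NP-40 vs SDS log2 ratios): synchronized HeLa Kyoto cells (double thymidine block for G1/S, nocodazole release for mitosis), protein amounts in NP-40 versus SDS lysates quantified by mass spectrometry, three biological replicates.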
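Throughout, for solubility in G1/S (NP-40 vs SDS abundance): HeLa Kyoto cells arrested at G1/S by double thymidine block, proteins quantified by TMT10plex mass spectrometry in mild NP-40 versus SDS extracts, three biological replicates.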
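Throughout, for thermal stability score vs G1/S (z-score of summed log2 fold changes over temperatures): synchronized HeLa Kyoto cells, proteins quantified by TMT10plex mass spectrometry, three biological replicates, mitosis taken 0.5 h after nocodazole release, G1/S directly after double thymidine block.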

Row | Sequence | melting temperature ([1]; cell cycle stage: G1/S) [°C] | melting temperature ([1]; cell cycle stage: mitosis) [°C] | thermal stability score [2, 5] | thermal stability score ([2]; cell cycle stage: mitosis) | solubility in G1/S (log2) [3] | solubility change mitosis (log2) [4]
1 | MAFPHRPDAPELPDFSMLKRLARDQLIYLLEQLPGKKDLFIEADLMSPLDRIANVSILKQHEVDKLYKVENKPALSSNEQLCFLVRPRIKNMRYIASLVNADKLAGRTRKYKVIFSPQKFYACEMVLEEEGIYGDVSCDEWAFSLLPLDVDLLSMELPEFFRDYFLEGDQRWINTVAQALHLLSTLYGPFPNCYGIGRCAKMAYELWRNLEEEEDGETKGRRPEIGHIFLLDRDVDFVTALCSQVVYEGLVDDTFRIKCGSVDFGPEVTSSDKSLKVLLNAEDKVFNEIRNEHFSNVFGFLSQKARNLQAQYDRRRGMDIKQMKNFVSQELKGLKQEHRLLSLHIGACESIMKKKTKQDFQELIKTEHALLEGFNIRESTSYIEEHIDRQVSPIESLRLMCLLSITENGLIPKDYRSLKTQYLQSYGPEHLLTFSNLRRAGLLTEQAPGDTLTAVESKVSKLVTDKAAGKITDAFSSLAKRSNFRAISKKLNLIPRVDGEYDLKVPRDMAYVFGGAYVPLSCRIIEQVLERRSWQGLDEVVRLLNCSDFAFTDMTKEDKASSESLRLILVVFLGGCTFSEISALRFLGREKGYRFIFLTTAVTNSARLMEAMSEVKA [VPS33B] | 49.9 | 49.4 | 0.623 | 0.549 | -0.121 | -0.189
2 | MAFQKAVKGTILVGGGALATVLGLSQFAHYRRKQMNLAYVKAADCISEPVNREPPSREAQLLTLQNTSEFDILVIGGGATGSGCALDAVTRGLKTALVERDDFSSGTSSRSTKLIHGGVRYLQKAIMKLDIEQYRMVKEALHERANLLEIAPHLSAPLPIMLPVYKWWQLPYYWVGIKLYDLVAGSNCLKSSYVLSKSRALEHFPMLQKDKLVGAIVYYDGQHNDARMNLAIALTAARYGAATANYMEVVSLLKKTDPQTGKVRVSGARCKDVLTGQEFDVRAKCVINATGPFTDSVRKMDDKDAAAICQPSAGVHIVMPGYYSPESMGLLDPATSDGRVIFFLPWQKMTIAGTTDTPTDVTHHPIPSEEDINFILNEVRNYLSCDVEVRRGDVLAAWSGIRPLVTDPKSADTQSISRNHVVDISESGLITIAGGKWTTYRSMAEDTINAAVKTHNLKAGPSRTVGLFLQGGKDWSPTLYIRLVQDYGLESEVAQHLAATYGDKAFEVAKMASVTGKRWPIVGVRLVSEFPYIEAEVKYGIKEYACTAVDMISRRTRLAFLNVQAAEEALPRIVELMGRELNWDDYKKQEQLETARKFLYYEMGYKSRSEQLTDRSEISLLPSDIDRYKKRFHKFDADQKGFITIVDVQRVLESINVQMDENTLHEILNEVDLNKNGQVELNEFLQLMSAIQKGRVSGSRLAILMKTAEENLDRRVPIPVDRSCGGL [GPD2] | 59.2 | 59 | -2.62 | -2.93 | 0.104 | -0.0945
3 | MAFWAGGSPSVVDYFPSEDFYRCGYCKNESGSRSNGMWAHSMTVQDYQDLIDRGWRRSGKYVYKPVMNQTCCPQYTIRCRPLQFQPSKSHKKVLKKMLKFLAKGEVPKGSCEDEPMDSTMDDAVAGDFALINKLDIQCDLKTLSDDIKESLESEGKNSKKEEPQELLQSQDFVGEKLGSGEPSHSVKVHTVPKPGKGADLSKPPCRKAKEIRKERKRLKLMQQNPAGELEGFQAQGHPPSLFPPKAKSNQPKSLEDLIFESLPENASHKLEVRVVRSSPPSSQFKATLLESYQVYKRYQMVIHKNPPDTPTESQFTRFLCSSPLEAETPPNGPDCGYGSFHQQYWLDGKIIAVGVIDILPNCVSSVYLYYDPDYSFLSLGVYSALREIAFTRQLHEKTSQLSYYYMGFYIHSCPKMKYKGQYRPSDLLCPETYVWVPIEQCLPSLENSKYCRFNQDPEAVDEDRSTEPDRLQVFHKRAIMPYGVYKKQQKDPSEEAAVLQYASLVGQKCSERMLLFRN [ATE1] | 51 | 50.8 | 0.0147 | 0.195 | 0.211 | -0.352
4 | MAGAAGLTAEVSWKVLERRARTKRSGSVYEPLKSINLPRPDNETLWDKLDHYYRIVKSTLLLYQSPTTGLFPTKTCGGDQKAKIQDSLYCAAGAWALALAYRRIDDDKGRTHELEHSAIKCMRGILYCYMRQADKVQQFKQDPRPTTCLHSVFNVHTGDELLSYEEYGHLQINAVSLYLLYLVEMISSGLQIIYNTDEVSFIQNLVFCVERVYRVPDFGVWERGSKYNNGSTELHSSSVGLAKAALEAINGFNLFGNQGCSWSVIFVDLDAHNRNRQTLCSLLPRESRSHNTDAALLPCISYPAFALDDEVLFSQTLDKVVRKLKGKYGFKRFLRDGYRTSLEDPNRCYYKPAEIKLFDGIECEFPIFFLYMMIDGVFRGNPKQVQEYQDLLTPVLHHTTEGYPVVPKYYYVPADFVEYEKNNPGSQKRFPSNCGRDGKLFLWGQALYIIAKLLADELISPKDIDPVQRYVPLKDQRNVSMRFSNQGPLENDLVVHVALIAESQRLQVFLNTYGIQTQTPQQVEPIQIWPQQELVKAYLQLGINEKLGLSGRPDRPIGCLGTSKIYRILGKTVVCYPIIFDLSDFYMSQDVFLLIDDIKNALQFIKQYWKMHGRPLFLVLIREDNIRGSRFNPILDMLAALKKGIIGGVKVHVDRLQTLISGAVVEQLDFLRISDTEELPEFKSFEELEPPKHSKVKRQSSTPSAPELGQQPDVNISEWKDKPTHEILQKLNDCSCLASQAILLGILLKREGPNFITKEGTVSDHIERVYRRAGSQKLWLAVRYGAAFTQKFSSSIAPHITTFLVHGKQVTLGAFGHEEEVISNPLSPRVIQNIIYYKCNTHDEREAVIQQELVIHIGWIISNNPELFSGMLKIRIGWIIHAMEYELQIRGGDKPALDLYQLSPSEVKQLLLDILQPQQNGRCWLNRRQIDGSLNRTPTGFYDRVWQILERTPNGIIVAGKHLPQQPTLSDMTMYEMNFSLLVEDTLGNIDQPQYRQIVVELLMVVSIVLERNPELEFQDKVDLDRLVKEAFNEFQKDQSRLKEIEKQDDMTSFYNTPPLGKRGTCSYLTKAVMNLLLEGEVKPNNDDPCLIS [PHKB] | 50.2 | 49.3 | -0.245 | 0.284 | -0.047 | -0.191
5 | MAGAASPCANGCGPGAPSDAEVLHLCRSLEVGTVMTLFYSKKSQRPERKTFQVKLETRQITWSRGADKIEGAIDIREIKEIRPGKTSRDFDRYQEDPAFRPDQSHCFVILYGMEFRLKTLSLQATSEDEVNMWIKGLTWLMEDTLQAPTPLQIERWLRKQFYSVDRNREDRISAKDLKNMLSQVNYRVPNMRFLRERLTDLEQRSGDITYGQFAQLYRSLMYSAQKTMDLPFLEASTLRAGERPELCRVSLPEFQQFLLDYQGELWAVDRLQVQEFMLSFLRDPLREIEEPYFFLDEFVTFLFSKENSVWNSQLDAVCPDTMNNPLSHYWISSSHNTYLTGDQFSSESSLEAYARCLRMGCRCIELDCWDGPDGMPVIYHGHTLTTKIKFSDVLHTIKEHAFVASEYPVILSIEDHCSIAQQRNMAQYFKKVLGDTLLTKPVEISADGLPSPNQLKRKILIKHKKLAEGSAYEEVPTSMMYSENDISNSIKNGILYLEDPVNHEWYPHYFVLTSSKIYYSEETSSDQGNEDEEEPKEVSSSTELHSNEKWFHGKLGAGRDGRHIAERLLTEYCIETGAPDGSFLVRESETFVGDYTLSFWRNGKVQHCRIHSRQDAGTPKFFLTDNLVFDSLYDLITHYQQVPLRCNEFEMRLSEPVPQTNAHESKEWYHASLTRAQAEHMLMRVPRDGAFLVRKRNEPNSYAISFRAEGKIKHCRVQQEGQTVMLGNSEFDSLVDLISYYEKHPLYRKMKLRYPINEEALEKIGTAEPDYGALYEGRNPGFYVEANPMPTFKCAVKALFDYKAQREDELTFIKSAIIQNVEKQEGGWWRGDYGGKKQLWFPSNYVEEMVNPVALEPEREHLDENSPLGDLLRGVLDVPACQIAIRPEGKNNRLFVFSISMASVAHWSLDVAADSQEELQDWVKKIREVAQTADARLTEGKIMERRKKIALELSELVVYCRPVPFDEEKIGTERACYRDMSSFPETKAEKYVNKAKGKKFLQYNRLQLSRIYPKGQRLDSSNYDPLPMWICGSQLVALNFQTPDKPMQMNQALFMTGRHCGYVLQPSTMRDEAFDPFDKSSLRGLEPCAISIEVLGARHLPKNGRGIVCPFVEIEVAGAEYDSTKQKTEFVVDNGLNPVWPAKPFHFQISNPEFAFLRFVVYEEDMFSDQNFLAQATFPVKGLKTGYRAVPLKNNYSEDLELASLLIKIDIFPAKENGDLSPFSGTSLRERGSDASGQLFHGRAREGSFESRYQQPFEDFRISQEHLADHFDSRERRAPRRTRVNGDNRL [PLCG1] | 50.2 | 50.2 | -0.13 | -0.0513 | -0.111 | -0.123
6 | MAGAEGAAGRQSELEPVVSLVDVLEEDEELENEACAVLGGSDSEKCSYSQGSVKRQALYACSTCTPEGEEPAGICLACSYECHGSHKLFELYTKRNFRCDCGNSKFKNLECKLLPDKAKVNSGNKYNDNFFGLYCICKRPYPDPEDEIPDEMIQCVVCEDWFHGRHLGAIPPESGDFQEMVCQACMKRCSFLWAYAAQLAVTKISTEDDGLVRNIDGIGDQEVIKPENGEHQDSTLKEDVPEQGKDDVREVKVEQNSEPCAGSSSESDLQTVFKNESLNAESKSGCKLQELKAKQLIKKDTATYWPLNWRSKLCTCQDCMKMYGDLDVLFLTDEYDTVLAYENKGKIAQATDRSDPLMDTLSSMNRVQQVELICEYNDLKTELKDYLKRFADEGTVVKREDIQQFFEEFQSKKRRRVDGMQYYCS [UBR7] | 49.9 | 50.7 | -0.155 | 0.512 | 0.163 | -0.0607
7 | MAGAQPGVHALQLEPPTVVETLRRGSKFIKWDEETSSRNLVTLRVDPNGFFLYWTGPNMEVDTLDISSIRDTRTGRYARLPKDPKIREVLGFGGPDARLEEKLMTVVSGPDPVNTVFLNFMAVQDDTAKVWSEELFKLAMNILAQNASRNTFLRKAYTKLKLQVNQDGRIPVKNILKMFSADKKRVETALESCGLKFNRSESIRPDEFSLEIFERFLNKLCLRPDIDKILLEIGAKGKPYLTLEQLMDFINQKQRDPRLNEVLYPPLRPSQARLLIEKYEPNQQFLERDQMSMEGFSRYLGGEENGILPLEALDLSTDMTQPLSAYFINSSHNTYLTAGQLAGTSSVEMYRQALLWGCRCVELDVWKGRPPEEEPFITHGFTMTTEVPLRDVLEAIAETAFKTSPYPVILSFENHVDSAKQQAKMAEYCRSIFGDALLIEPLDKYPLAPGVPLPSPQDLMGRILVKNKKRHRPSAGGPDSAGRKRPLEQSNSALSESSAATEPSSPQLGSPSSDSCPGLSNGEEVGLEKPSLEPQKSLGDEGLNRGPYVLGPADREDEEEDEEEEEQTDPKKPTTDEGTASSEVNATEEMSTLVNYIEPVKFKSFEAARKRNKCFEMSSFVETKAMEQLTKSPMEFVEYNKQQLSRIYPKGTRVDSSNYMPQLFWNVGCQLVALNFQTLDVAMQLNAGVFEYNGRSGYLLKPEFMRRPDKSFDPFTEVIVDGIVANALRVKVISGQFLSDRKVGIYVEVDMFGLPVDTRRKYRTRTSQGNSFNPVWDEEPFDFPKVVLPTLASLRIAAFEEGGKFVGHRILPVSAIRSGYHYVCLRNEANQPLCLPALLIYTEASDYIPDDHQDYAEALINPIKHVSLMDQRARQLAALIGESEAQAGQETCQDTQSQQLGSQPSSNPTPSPLDASPRRPPGPTTSPASTSLSSPGQRDDLIASILSEVAPTPLDELRGHKALVKLRSRQERDLRELRKKHQRKAVTLTRRLLDGLAQAQAEGRCRLRPGALGGAADVEDTKEGEDEAKRYQEFQNRQVQSLLELREAQVDAEAQRRLEHLRQALQRLREVVLDANTTQFKRLKEMNEREKKELQKILDRKRHNSISEAKMRDKHKKEAELTEINRRHITESVNSIRRLEEAQKQRHDRLVAGQQQVLQQLAEEEPKLLAQLAQECQEQRARLPQEIRRSLLGEMPEGLGDGPLVACASNGHAPGSSGHLSGADSESQEENTQL [PLCB3] | 52.7 | 51.7 | 0.256 | -0.25 | 0.0201 | 0.0123
